Experimental data reported in paper PMC6589575.

Target: His6–Drp1, full-length Drp1-short isoform
Assay: co-sedimentation

## His6–Drp1, full-length Drp1-short isoform (enzyme)
  percent of His6–Drp1 in the pellet (with GMP–PCP and His6–cyclin C): 34%
  percent of His6–Drp1 in the pellet (with GMP–PCP): 16%
